For one assay, the system named is SARS-CoV-2 gRNA. The format is binding. Particulars: for target (unweighted spectral count of the protein in the RNP capture): LC-MS/MS, Probe I sample (first 199 lines of Table 2).
The next assay deals with HCoV-OC43 gRNA and sgRNA. The format is binding. The settings on record: for target (unweighted spectral count, OC43 Probe II capture) / target (unweighted spectral count): tested against no-probe control; for target (unweighted spectral count, OC43 Probe II capture): FDR<10%; for target (unweighted spectral count): OC43 Probe II, 24 hpi (type n_24_v), infected cells.

Like-named read-outs stand apart in the source and are kept apart here.

B1: SRSF9 (protein, UniProt Q13242 1-221, looked up)
Serine/arginine-rich splicing …: MSGWADERGGEGDGRIYVGNLPTDVREKDLEDLFYKYGRIREIELKNRHGLVPFAFVRFEDPRDAEDAIYGRNGYDYGQCRLRVEFPRTYGGRGGWPRGGRNGPPTRRSDFRVLVSGLPPSGSWQDLKDHMREAGDVCYADVQKDGVGMVEYLRKEDMEYALRKLDDTKFRSHEGETSYIRVYPERSTSYGYSRSRSGSRGRDSPYQSRGSPHYFSPFRPY
As for B1, the “target (unweighted spectral count of the protein in the RNP capture)” value in the assay with SARS-CoV-2 gRNA ([…]) was determined as 6.

B2: CON_P35908 (protein, UniProt P35908 1-639, looked up)
Keratin, type II cytoskeletal …: MSCQISCKSRGRGGGGGGFRGFSSGSAVVSGGSRRSTSSFSCLSRHGGGGGGFGGGGFGSRSLVGLGGTKSISISVAGGGGGFGAAGGFGGRGGGFGGGSSFGGGSGFSGGGFGGGGFGGGRFGGFGGPGGVGGLGGPGGFGPGGYPGGIHEVSVNQSLLQPLNVKVDPEIQNVKAQEREQIKTLNNKFASFIDKVRFLEQQNQVLQTKWELLQQMNVGTRPINLEPIFQGYIDSLKRYLDGLTAERTSQNSELNNMQDLVEDYKKKYEDEINKRTAAENDFVTLKKDVDNAYMIKVELQSKVDLLNQEIEFLKVLYDAEISQIHQSVTDTNVILSMDNSRNLDLDSIIAEVKAQYEEIAQRSKEEAEALYHSKYEELQVTVGRHGDSLKEIKIEISELNRVIQRLQGEIAHVKKQCKNVQDAIADAEQRGEHALKDARNKLNDLEEALQQAKEDLARLLRDYQELMNVKLALDVEIATYRKLLEGEECRMSGDLSSNVTVSVTSSTISSNVASKAAFGGSGGRGSSSGGGYSSGSSSYGSGGRQSGSRGGSGGGGSISGGGYGSGGGSGGRYGSGGGSKGGSISGGGYGSGGGKHSSGGGSRGGSSSGGGYGSGGGGSSSVKGSSGEAFGSSVTFSFR
With B2, in the assay on SARS-CoV-2 gRNA ([…]), the “target (unweighted spectral count of the protein in the RNP capture)” value is listed as 6. Also, in the assay with HCoV-OC43 gRNA and sgRNA (24 hpi, type n_24_v), the “target (unweighted spectral count, OC43 Probe II capture)” value amounted to 4.

B3: MARS2 (protein, UniProt Q96GW9 30-593, looked up)
Methionine--tRNA ligase, …: SSGSLSAGDDACDVRAYFTTPIFYVNAAPHIGHLYSALLADALCRHRRLRGPSTAATRFSTGTDEHGLKIQQAAATAGLAPTELCDRVSEQFQQLFQEAGISCTDFIRTTEARHRVAVQHFWGVLKSRGLLYKGVYEGWYCASDECFLPEAKVTQQPGPSGDSFPVSLESGHPVSWTKEENYIFRLSQFRKPLQRWLRGNPQAITPEPFHHVVLQWLDEELPDLSVSRRSSHLHWGIPVPGDDSQTIYVWLDALVNYLTVIGYPNAEFKSWWPATSHIIGKDILKFHAIYWPAFLLGAGMSPPQRICVHSHWTVCGQKMSKSLGNVVDPRTCLNRYTVDGFRYFLLRQGVPNWDCDYYDEKVVKLLNSELADALGGLLNRCTAKRINPSETYPAFCTTCFPSEPGLVGPSVRAQAEDYALVSAVATLPKQVADHYDNFRIYKALEAVSSCVRQTNGFVQRHAPWKLNWESPVDAPWLGTVLHVALECLRVFGTLLQPVTPSLADKLLSRLGVSASERSLGELYFLPRFYGHPCPFEGRRLGPETGLLFPRLDQSRTWLVKAHRT
Take B3: in the assay on SARS-CoV-2 gRNA ([…]), the “target (unweighted spectral count of the protein in the RNP capture)” value is listed as 6.

B4: RPUSD3 (protein, UniProt Q6P087 26-351, looked up)
Mitochondrial mRNA …: LGVRPVPEDAGFGTEARHQRQPRGSCQRSGPLGDQPFAGLLPKNLSREELVDALRAAVVDRKGPLVTLNKPQGLPVTGKPGELTLFSVLPELSQSLGLREQELQVVRASGKESSGLVLLSSCPQTASRLQKYFTHARRAQRPTATYCAVTDGIPAASEGKIQAALKLEHIDGVNLTVPVKAPSRKDILEGVKKTLSHFRVVATGSGCALVQLQPLTVFSSQLQVHMVLQLCPVLGDHMYSARVGTVLGQRFLLPAENNKPQRQVLDEALLRRLHLTPSQAAQLPLHLHLHRLLLPGTRARDTPVELLAPLPPYFSRTLQCLGLRLQ
On to B4, for which, in the assay on SARS-CoV-2 gRNA ([…]), the “target (unweighted spectral count of the protein in the RNP capture)” value came to 7.

B5: GRSF1 (protein, UniProt Q12849 118-480, looked up)
G-rich sequence factor 1: SQESKTTYLEDLPPPPEYELAPSKLEEEVDDVFLIRAQGLPWSCTMEDVLNFFSDCRIRNGENGIHFLLNRDGKRRGDALIEMESEQDVQKALEKHRMYMGQRYVEVYEINNEDVDALMKSLQVKSSPVVNDGVVRLRGLPYSCNEKDIVDFFAGLNIVDITFVMDYRGRRKTGEAYVQFEEPEMANQALLKHREEIGNRYIEIFPSRRNEVRTHVGSYKGKKIASFPTAKYITEPEMVFEEHEVNEDIQPMTAFESEKEIELPKEVPEKLPEAADFGTTSSLHFVHMRGLPFQANAQDIINFFAPLKPVRITMEYSSSGKATGEADVHFETHEDAVAAMLKDRSHVHHRYIELFLNSCPKGK
As for B5, the “target (unweighted spectral count of the protein in the RNP capture)” value in the assay with SARS-CoV-2 gRNA ([…]) came out at 14. Moreover, the “target (unweighted spectral count, OC43 Probe II capture)” value in the assay on HCoV-OC43 gRNA and sgRNA (24 hpi, type n_24_v) is on record as 4.

B6: DDX3X (protein, UniProt O00571 2-662, looked up)
ATP-dependent RNA helicase …: SHVAVENALGLDQQFAGLDLNSSDNQSGGSTASKGRYIPPHLRNREATKGFYDKDSSGWSSSKDKDAYSSFGSRSDSRGKSSFFSDRGSGSRGRFDDRGRSDYDGIGSRGDRSGFGKFERGGNSRWCDKSDEDDWSKPLPPSERLEQELFSGGNTGINFEKYDDIPVEATGNNCPPHIESFSDVEMGEIIMGNIELTRYTRPTPVQKHAIPIIKEKRDLMACAQTGSGKTAAFLLPILSQIYSDGPGEALRAMKENGRYGRRKQYPISLVLAPTRELAVQIYEEARKFSYRSRVRPCVVYGGADIGQQIRDLERGCHLLVATPGRLVDMMERGKIGLDFCKYLVLDEADRMLDMGFEPQIRRIVEQDTMPPKGVRHTMMFSATFPKEIQMLARDFLDEYIFLAVGRVGSTSENITQKVVWVEESDKRSFLLDLLNATGKDSLTLVFVETKKGADSLEDFLYHEGYACTSIHGDRSQRDREEALHQFRSGKSPILVATAVAARGLDISNVKHVINFDLPSDIEEYVHRIGRTGRVGNLGLATSFFNERNINITKDLLDLLVEAKQEVPSWLENMAYEHHYKGSSRGRSKSSRFSGGFGARDYRQSSGASSSSFSSSRASSSRSGGGGHGSSRGFGGGGYGGFYNSDGYGGNYNSQGVDWWGN
As for B6, the “target (unweighted spectral count of the protein in the RNP capture)” value with SARS-CoV-2 gRNA ([…]) amounted to 17. Also, the “target (unweighted spectral count, OC43 Probe II capture)” value in the assay on HCoV-OC43 gRNA and sgRNA (36 hpi, type n_36_v) was found to be 7. For the same molecule, the “target (unweighted spectral count)” value in the assay with HCoV-OC43 gRNA and sgRNA came out at 7. In the assay on HCoV-OC43 gRNA and sgRNA (type n_48_v, 48 hpi, OC43 Probe II capture on infected cells), the “target (unweighted spectral count, OC43 Probe II)” value stood at 11. In the assay on HCoV-OC43 gRNA and sgRNA (type n_48_v, 48 hpi, no-probe control on infected cells), the “background (unweighted spectral count, no-probe control)” value is 2.

B7: FAM1204 (protein, UniProt Q9NZB2 1-1118, looked up)
Constitutive coactivator of …: MGVQGFQDYIEKHCPSAVVPVELQKLARGSLVGGGRQRPPQTPLRLLVDADNCLHRLYGGFYTDWVSGGQWNHMLGYLAALAKACFGGNIELFVFFNGALEKARLHEWVKRQGNERQTAQQIVSHVQNKGTPPPKVWFLPPVCMAHCIRLALIRFHVKVAQSIEDHHQEVIGFCRENGFHGLVAYDSDYALCNIPYYFSAHALKLSRNGKSLTTSQYLMHEVAKQLDLNPNRFPIFAALLGNHILPDEDLASFHWSLLGPEHPLASLKVRAHQLVLPPCDVVIKAVADYVRNIQDTSDLDAIAKDVFQHSQSRTDDKVIRFKRAIGYYSATSKPMSFHPPHYLAARPGPFGMPGMVPPHVPPQMLNIPQTSLQAKPVAPQVPSPGGAPGQGPYPYSLSEPAPLTLDTSGKNLTEQNSYSNIPHEGKHTPLYERSSPINPAQSGSPNHVDSAYFPGSSTSSSSDNDEGSGGATNHISGNKIGWEKTGSHSEPQARGDPGDQTKAEGSSTASSGSQLAEGKGSQMGTVQPIPCLLSMPTRNHMDITTPPLPPVAPEVLRVAEHRHKKGLMYPYIFHVLTKGEIKIAVSIEDEANKDLPPAALLYRPVRQYVYGVLFSLAESRKKTERLAFRKNRLPPEFSPVIIKEWAAYKGKSPQTPELVEALAFREWTCPNLKRLWLGKAVEDKNRRMRAFLACMRSDTPAMLNPANVPTHLMVLCCVLRYMVQWPGARILRRQELDAFLAQALSPKLYEPDQLQELKIENLDPRGIQLSALFMSGVDMALFANDACGQPIPWEHCCPWMYFDGKLFQSKLLKASREKTPLIDLCDGQADQAAKVEKMRQSVLEGLSFSRQSHTLPFPPPPALPFYPASAYPRHFGPVPPSQGRGRGFAGVCGFGGPYGETVATGPYRAFRVAAASGHCGAFSGSDSSRTSKSQGGVQPIPSQGGKLEIAGTVVGHWAGSRRGRGGRGPFPLQVVSVGGPARGRPRGVISTPVIRTFGRGGRYYGRGYKNQAAIQGRPPYAASAEEVAKELKSKSGESKSSAMSSDGSLAENGVMAEEKPAPQMNGSTGDARAPSHSESALNNDSKTCNTNPHLNALSTDSACRREAALEAAVLNKEE
As to B7, the “target (unweighted spectral count of the protein in the RNP capture)” value in the assay on SARS-CoV-2 gRNA ([…]) is reported as 37.

B8: CKAP4: host protein, UniProt Q07065 (protein, UniProt Q07065 1-602, looked up)
Cytoskeleton-associated …: MPSAKQRGSKGGHGAASPSEKGAHPSGGADDVAKKPPPAPQQPPPPPAPHPQQHPQQHPQNQAHGKGGHRGGGGGGGKSSSSSSASAAAAAAAASSSASCSRRLGRALNFLFYLALVAAAAFSGWCVHHVLEEVQQVRRSHQDFSRQREELGQGLQGVEQKVQSLQATFGTFESILRSSQHKQDLTEKAVKQGESEVSRISEVLQKLQNEILKDLSDGIHVVKDARERDFTSLENTVEERLTELTKSINDNIAIFTEVQKRSQKEINDMKAKVASLEESEGNKQDLKALKEAVKEIQTSAKSREWDMEALRSTLQTMESDIYTEVRELVSLKQEQQAFKEAADTERLALQALTEKLLRSEESVSRLPEEIRRLEEELRQLKSDSHGPKEDGGFRHSEAFEALQQKSQGLDSRLQHVEDGVLSMQVASARQTESLESLLSKSQEHEQRLAALQGRLEGLGSSEADQDGLASTVRSLGETQLVLYGDVEELKRSVGELPSTVESLQKVQEQVHTLLSQDQAQAARLPPQDFLDRLSSLDNLKASVSQVEADLKMLRTAVDSLVAYSVKIETNENNLESAKGLLDDLRNDLDRLFVKVEKIHEKV
B8: the “target (unweighted spectral count in RNP capture)” value in the assay with SARS-CoV-2 gRNA (Probe I capture, […], LC-MS/MS LFQ) came to 5. For the same molecule, in the assay on SARS-CoV-2 gRNA (no-probe control pull-down, used as background for Probe I), the “background (unweighted spectral count in control)” value is listed as 1. In addition, in the assay on HCoV-OC43 gRNA and sgRNA (36 hpi, type n_36_v), the “target (unweighted spectral count, OC43 Probe II capture)” value was determined as 12. For the same molecule, the “target (unweighted spectral count)” value in the assay on HCoV-OC43 gRNA and sgRNA is 8. Besides, the “target (spectral count)” value in the assay with HCoV-OC43 gRNA and sgRNA (type s_36_m, HCoV-OC43-infected HCT-8 cells, 36 hpi, Probe II) was found to be 12. Further, in the assay with HCoV-OC43 gRNA and sgRNA (type s_36_m, uninfected-probe control, 36 hpi, Probe II), the “background (spectral count)” value amounted to 1.

These data come from US20230407373A1 (priority 2020, published 2023).
